Measured values: US20230331827A1, “POTASSIUM CHANNEL INHIBITORS” (priority 2017, published 2023)

Legend:
trypsin [1] = experiment: KnotBody Fab TRF binding assay on biotinylated trypsin
Experimental: In order to confirm the trypsin binding ability of KnotBodies in Fab format, purified proteins were tested for binding to trypsin using a TRF binding assay. In this assay binding of KnotBody Fabs ([…]) to biotinylated trypsin (immobilised on streptavidin coated Maxisorp™ plates) was detected using a mouse anti-CH1 antibody followed by a europium conjugated anti-mouse antibody (Table 4). 7 KnotBodies (KB_A04, KB_A01, KB_A05, KB_A07, KB_A08, KB_A10, KB_A12) were chosen for crystallisation. DNA prepared for these clones were transfected into 500 ml HEK-293F cells as described before. Expressed proteins were purified using CaptureSelect IgG-CH1 affinity matrix. Purified proteins were initially subjected to crystallisation trials using commercially available crystallisation screens (Supplier). Well-defined crystals were readily obtained for KB_A12 and KB_A05. Crystallisation conditions for these two clones were further optimised and the following condition was used to generate diffraction quality crystals: 0.1 M MES pH=6.5, 25 %w/v PEG MME 2000 and 0.1 M Tris.Cl, 50% PEG MME, 10 mM NiCl2. Complete diffraction data was collected on these crystals at 100 K under liquid nitrogen stream. Collected data was processed using PROTEUM2 software (Bruker). The crystal structure of the knottin-fused Fab antibodies was resolved using molecular replacement technique^109 using Phenix software v 1.8.1-1168^110. Resulting structure was further refined using Phenix.Refine^111. The templates for molecular replacement were downloaded from PDB website (www.rcsb.org/pdb, PDB codes: 3G04 for light chain and 3QOS for heavy chain). KnotBody KB_A12 and KB_A05 sequences are given below. An additional AlaSer sequence is introduced at the N terminus of the light chain from the Nhe1 site used in cloning.
In order to compare the performance of the KnotBodies with short and long linkers, purified Fabs were tested for binding to trypsin by ELISA. In this assay binding of KnotBody Fabs (at 0.5 µg/ml) to biotinylated trypsin (5 µg/ml immobilised on streptavidin coated Maxisorp™ plates) was detected using a mouse anti-CH1 antibody (Hybridoma Reagent Laboratories) followed by a europium conjugated anti-mouse antibody (Perkin Elmer, Cat. No. AD0124). The trypsin binding capability of KB_A07 and KB_A12 KnotBodies were greatly diminished when the short selected linkers were replaced with long and flexible linkers (FIG. 22).

trypsin [2] = experiment: Phage TRF binding assay on immobilised biotinylated trypsin (monoclonal phage ELISA)
Experimental: Phage display technology facilitates isolation of binders to any given target from large combinatorial repertoires based on proteins and peptides that can be presented on the surface of filamentous phage^105. In order to isolate functional knottin-antibody fusions from the KnotBody libraries multiple rounds of phage display selections on trypsin (cognate antigen for the EETI-II donor) were carried out. Phage particles were prepared by rescuing KnotBody libraries using trypsin cleavable helper phage ^102,106Two rounds of phage display selections were performed on 10 µg/ml biotinylated trypsin immobilised on Streptavidin (for Round-1) or Neutravidin (for round-2) coated Maxisorp™ immunotubes (Thermo Scientific, Cat No. 444202). In both rounds of selection, phage libraries were pre-incubated with streptavidin coated paramagnetic beads (Thermo Fisher Scientific, Cat. No. 11205D). These beads were removed prior to the addition the phage to the antigen tubes to limit the streptavidin binders entering the selection. Polyclonal phage preparations from round-2 selection outputs were analysed for trypsin binding using a time resolved fluorescence (TRF) binding assay. In this assay, polyclonal phage binding to biotinylated trypsin immobilised on neutravidin (Thermo Fisher Scientific, Cat. No 31000) coated Maxisorp™ plates (Thermo Scientific, Cat. No. 437111) was detected using a mouse anti-M13 antibody (GE Healthcare, Cat. No. 27-9420-01) followed by europium conjugated anti-mouse antibody (Perkin Elmer, Cat. No. AD0124).
In order to identify monoclonal KnotBodies with desired binding characteristics, 94 individual clones derived from 2 rounds of selection using EETI-II CDR1 or CDR2 libraries were picked into 96 well culture plates and phage were prepared from each clone. Methods for screening by monoclonal phage ELISA are known in the art^107. […] Clones with >3x binding signal above background were picked as positive clones and sequenced to identify unique clones. 14 and 42 unique binders were identified from EETI-II CDR1 and EETI-II CDR2 libraries respectively (Table 1). 18 binders from the EETI-II CDR2 library and 3 binders from the EETI-II-CDR1 library were chosen for further characterisation based on their VL and linker sequence diversity. These binders were assigned new clone identification numbers (Table 2).
The trypsin binding capability of EETI-II is attributed to proline (Pro3) and arginine (Arg4) residues present in its loop1 (GCPRILMRC; SEQ ID NO: 68). […] Monoclonal phage was prepared from the 21 selected clones and their mutant equivalents. […] Replacement of the trypsin-binding residues of EETI-II abolished the ability of all KnotBody clones to bind to trypsin (Table 3). In order to confirm that the loss of trypsin binding was not due to reduced expression or display of pIII fusion phage was prepared from 11 (randomly chosen) KnotBodies and their GlyAla variants were analysed on a western blot using an antibody which recognises the product of gene 3 (pIII) using an anti-pIII antibody (MoBiTec GmbH) (FIG. 6).
Bovine antibodies have been described with natural ultra-long VH CDR3s containing a solvent exposed double stranded antiparallel sheet approximately 20 A° in length (referred to as the stalk) presenting a folded domain stabilised by 3 disulfide bonds (referred to as the Knob)^10. Zhang and colleagues have shown that the Knob domains of these cow ultra-long VH CDR3 antibodies (ULVC-Ab) can be replaced with other folded proteins such as erythropoietin^13. In this example, we assess the ability of a cow ULVC-Ab to present functional knottin fusions on phage in comparison with a KnotBody. In order to create a Knottin-cow UCLA fusion, the sequence between the first and the last cysteines of the knob region of the Cow ULVC-Ab BLV1H12 was replaced with the sequence of the trypsin binding knottin; EETI-II (EETI-II cow ULVC-Ab). A gene fragment encoding this construct was synthesised (Integrated DNA technologies, Table 21). […]

B1: KB_A05: EETI-II knottin fused into VL CDR2, D1A12 VH; trypsin binder (antibody)
heavy: EVQLVESGGGLVRPGGSLRLSCAASGFTFSSYAMSWVRQAPGKGLEWVSAISGSGGSTYYADSVKGRFTISRDNTKNSLYLQMTSLRADDTAFYYCVDFGPGYGTGWFDYWGPGTLVTVSSASTKGPSVFPLAPSSKSTSGGTAALGCLVKDYFPEPVTVSWNSGALTSGVHTFPAVLQSSGLYSLSSVVTVPSSSLGTQTYICNVNHKPSNTKVDKKVEPKSC
light: QSVLTQPPSVSEAPRQRVTITCSGSSSNIGNNAVNWYQQLPGKAPKLLIYAADKCPRILMRCKQDSDCLAGCVCGPNGFCGGGSGIPERFSGSKSGTSASLAISGLRSEDEADYYCATWDDNLNGVVFGGGTKLTVLGQPAAAPSVTLFPPSSEELQANKATLVCLISDFYPGAVTVAWKADSSPVKAGVETTTPSKQSNNKYAASSYLSLTPEQWKSHKSYSCQVTHEGSTVEKTVAPTECS
modifications: KB_A05 Heavy chain; KB_A05 Light chain
- TRF signal for 0.6 ug/mL Fab (trypsin [1]; Fab 0.6 ug/mL): 46706
- TRF signal for 2.4 ug/mL Fab (trypsin [1]; Fab 2.4 ug/mL): 65386
- TRF signal for 10 ug/mL Fab (trypsin [1]; Fab 10 ug/mL): 217918
- % reduction in binding signal (trypsin [2]; GlyAla mutant (Pro3, Arg4 of EETI-II substituted) versus the clone, monoclonal phage): 100%
- Tryspin binding signal (FU) (trypsin [2]; monoclonal phage supernatant, biotinylated trypsin on neutravidin plates): 121458 FU
